Experimental data as given in US20210290678A1 (published 2021).

Columns and labels:
[1] = biological target: T1, human protein tyrosine kinase 7 (PTK7) (human, UniProt Q13308 31-1070); assay: flow cytometry cell binding titration; HCC70 human cells; unit from dose axis
T1 chain: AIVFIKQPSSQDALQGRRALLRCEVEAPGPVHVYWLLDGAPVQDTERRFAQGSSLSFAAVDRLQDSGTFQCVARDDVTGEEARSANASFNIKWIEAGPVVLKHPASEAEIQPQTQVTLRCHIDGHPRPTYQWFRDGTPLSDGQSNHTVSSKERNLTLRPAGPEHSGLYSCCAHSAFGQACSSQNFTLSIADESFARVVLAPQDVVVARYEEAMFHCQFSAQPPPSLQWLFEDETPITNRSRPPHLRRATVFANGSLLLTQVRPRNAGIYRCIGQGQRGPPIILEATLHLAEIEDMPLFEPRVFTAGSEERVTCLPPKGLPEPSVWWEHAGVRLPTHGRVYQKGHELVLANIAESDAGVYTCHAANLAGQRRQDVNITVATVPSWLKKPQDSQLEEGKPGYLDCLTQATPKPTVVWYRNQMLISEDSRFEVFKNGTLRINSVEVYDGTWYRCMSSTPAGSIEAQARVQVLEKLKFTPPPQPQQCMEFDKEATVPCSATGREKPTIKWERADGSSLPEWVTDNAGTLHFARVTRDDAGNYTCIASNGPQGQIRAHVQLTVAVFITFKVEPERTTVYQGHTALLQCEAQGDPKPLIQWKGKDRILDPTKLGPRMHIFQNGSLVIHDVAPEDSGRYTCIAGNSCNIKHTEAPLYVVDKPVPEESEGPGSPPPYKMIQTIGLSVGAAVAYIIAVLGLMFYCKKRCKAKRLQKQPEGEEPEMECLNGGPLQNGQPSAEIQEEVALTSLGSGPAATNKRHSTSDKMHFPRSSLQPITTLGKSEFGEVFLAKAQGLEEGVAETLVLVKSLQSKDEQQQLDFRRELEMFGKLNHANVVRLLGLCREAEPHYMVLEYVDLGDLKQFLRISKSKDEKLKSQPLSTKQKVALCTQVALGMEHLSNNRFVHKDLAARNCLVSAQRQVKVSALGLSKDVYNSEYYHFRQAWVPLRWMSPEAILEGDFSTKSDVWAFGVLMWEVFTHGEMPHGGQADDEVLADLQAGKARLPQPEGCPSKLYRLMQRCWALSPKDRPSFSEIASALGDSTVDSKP

murine PTK7 = biological target: T2, murine PTK7 (murine, UniProt Q8BKG3 23-1062); assay: flow cytometry cell binding titration; 3T3L1 murine cells; unit from dose axis
T2 chain: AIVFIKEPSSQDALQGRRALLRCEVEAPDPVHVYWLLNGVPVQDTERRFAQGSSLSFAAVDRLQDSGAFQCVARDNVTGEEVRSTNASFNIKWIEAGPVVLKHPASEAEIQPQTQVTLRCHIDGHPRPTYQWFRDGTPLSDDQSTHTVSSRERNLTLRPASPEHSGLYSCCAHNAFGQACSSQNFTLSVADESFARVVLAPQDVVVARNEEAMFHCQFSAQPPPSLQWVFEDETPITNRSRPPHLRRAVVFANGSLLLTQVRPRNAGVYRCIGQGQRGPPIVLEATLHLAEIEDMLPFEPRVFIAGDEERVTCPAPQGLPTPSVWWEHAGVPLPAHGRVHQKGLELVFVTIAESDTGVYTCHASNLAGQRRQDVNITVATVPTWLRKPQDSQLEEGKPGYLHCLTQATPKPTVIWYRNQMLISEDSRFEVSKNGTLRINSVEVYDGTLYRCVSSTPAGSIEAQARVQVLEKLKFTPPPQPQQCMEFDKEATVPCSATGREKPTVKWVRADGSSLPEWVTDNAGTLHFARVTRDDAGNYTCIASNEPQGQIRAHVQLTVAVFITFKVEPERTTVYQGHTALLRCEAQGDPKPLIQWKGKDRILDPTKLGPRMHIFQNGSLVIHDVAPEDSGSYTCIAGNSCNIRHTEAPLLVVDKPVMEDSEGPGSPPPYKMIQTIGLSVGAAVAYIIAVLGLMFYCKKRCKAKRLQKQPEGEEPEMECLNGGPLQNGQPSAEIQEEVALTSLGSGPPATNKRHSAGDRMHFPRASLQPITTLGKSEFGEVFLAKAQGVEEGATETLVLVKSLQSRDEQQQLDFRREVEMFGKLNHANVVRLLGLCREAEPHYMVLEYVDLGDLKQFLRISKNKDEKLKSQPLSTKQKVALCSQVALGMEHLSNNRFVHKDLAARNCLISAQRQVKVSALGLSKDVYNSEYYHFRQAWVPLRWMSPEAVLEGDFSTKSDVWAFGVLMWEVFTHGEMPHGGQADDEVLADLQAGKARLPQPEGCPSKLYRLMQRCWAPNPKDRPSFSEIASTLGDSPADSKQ

B1: CTX181 mAb (custom recombinant monoclonal anti-PTK7 antibody, Creative Biolabs) (antibody, V domains shown)
VH: QVQLVESGGGVVQPGRSLRLSCAASGFTFSSYGMHWVRQAPGKGLEWVAVIWDDGSNKYYVDSVKGRFTISRDNSKNTLYLQMNSLRAEDTAVYYCARDDYYGSGSFNSYYGTDVWGQGTTVTVSS
VL: EIVLTQSPATLSLSPGERATLSCRASQSVSIYLAWYQQKPGQAPRLLIYDASNRATGIPARFSGSGSGTDFTLTISSLEPEDFAVYYCQQRSNWPPFTFGPGTKVDIKR
For B1, the Kd [1] was 1.53 nM and the Kd (murine PTK7) was 0.662 nM.
